Consider 15 molecules from patent US20210356479A1 (BLOODWORKS, published 2021).

First the molecules themselves.
T1: human Kell glycoprotein, Kp^b form (KEL4) (human, UniProt P23276 1-732)
T1 construct: whole, on cells; On human Kp^b/Kp^b RBCs
T1 sequence (looked up): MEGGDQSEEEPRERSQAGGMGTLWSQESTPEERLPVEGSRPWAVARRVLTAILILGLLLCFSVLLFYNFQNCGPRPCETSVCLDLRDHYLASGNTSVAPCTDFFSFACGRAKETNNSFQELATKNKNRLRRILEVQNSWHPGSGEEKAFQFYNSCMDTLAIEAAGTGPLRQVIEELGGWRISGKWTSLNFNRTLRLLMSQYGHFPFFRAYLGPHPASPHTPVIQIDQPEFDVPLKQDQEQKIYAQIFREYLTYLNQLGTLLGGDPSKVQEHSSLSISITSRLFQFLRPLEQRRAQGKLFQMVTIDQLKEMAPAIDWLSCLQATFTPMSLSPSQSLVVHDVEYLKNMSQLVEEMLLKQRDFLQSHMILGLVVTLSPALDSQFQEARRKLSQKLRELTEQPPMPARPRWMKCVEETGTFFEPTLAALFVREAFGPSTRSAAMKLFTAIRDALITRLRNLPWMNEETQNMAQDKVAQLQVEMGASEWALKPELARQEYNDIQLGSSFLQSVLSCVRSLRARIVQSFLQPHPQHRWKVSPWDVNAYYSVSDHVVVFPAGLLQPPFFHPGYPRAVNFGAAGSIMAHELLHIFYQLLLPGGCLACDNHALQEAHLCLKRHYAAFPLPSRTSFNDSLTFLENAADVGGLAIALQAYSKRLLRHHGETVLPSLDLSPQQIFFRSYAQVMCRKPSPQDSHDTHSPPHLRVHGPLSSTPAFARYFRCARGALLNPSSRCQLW

T2: human Kell glycoprotein, K form (KEL1) (human, UniProt P23276 1-732)
T2 construct: whole, on cells; On human K/K or K+k+ RBCs and on RBCs of K transgenic mice; also called K antigen; K variant
T2 sequence (looked up): T1 sequence (looked up) with T193M

T3: human Kell glycoprotein, k form (KEL2) (human, UniProt P23276 1-732)
T3 construct: whole, on cells; On human k/k or K-k+ RBCs; also called k antigen
T3 sequence (looked up): T1 sequence (looked up)

B1: PUMA 4 monoclonal antibody (antibody, V domains shown)
VH: EVKLEESGGGLVQPGGSMKLSCVASGFTFSNYWMNWVRQPPEKGLEWVAEIRLNSNNYATHYAESVKGKFTISRDDSKSSVYLQMNDLRAEDTGIYYCTRNWDFAWFDSWGQGTLVTVSA
VL: DIVMTQSHKFMSTSVGDRVSITCKASQDVSTVVAWYQQKPGQSPKLLIYWASTRHTGVPDRFTGSGSGTDYTLTISSVQAEDLALYYCQQHYTTPFTFGSGTKLEIK
notes: Mouse monoclonal from hybridoma
B2: PUMA 1 human IgG3-06 isoallotype (antibody)
heavy: EVQLQQSGPELVKPGASVKMSCKASGYTFTDYYMKWVKQSHGKSLEWIGDLNPNNGDTFYNQKFKGKATLTVDKSSSTAYIQLNSLTSEDSAVYYCAREAGSSFGSSCNYWGQGTTLTVS
light: SVVMTQTPKFLLVSAGDRVTITCKASQTVSKDVAWYQQQPGQSPKLLIYYASNRYTGVPDRFTGSGYGTDFTFTISTVQAEDLAVYFCQQDYSSPYTFGGGTKLEIK
notes: Isoallotype named in CLM-00007; also called PUMA1-IgG3-6; not shown: human IgG3 heavy chain constant region, isoallotype IGHG3*06; human kappa light chain constant region (vector pFUSE2-CLIg-hk)
B3: PUMA 1 human IgG4-02 isoallotype (antibody)
heavy: B2 heavy
light: B2 light
notes: not shown: human IgG4 heavy chain constant region, isoallotype IGHG4*02; human kappa light chain constant region (vector pFUSE2-CLIg-hk)
B4: PUMA 1 human IgG3-14 isoallotype (antibody)
heavy: B2 heavy
light: B2 light
notes: Isoallotype named in CLM-00007; not shown: human IgG3 heavy chain constant region, isoallotype IGHG3*14; human kappa light chain constant region (vector pFUSE2-CLIg-hk)
B5: PUMA 1 human IgG3-16 isoallotype (antibody)
heavy: B2 heavy
light: B2 light
notes: Isoallotype named in CLM-00007; not shown: human IgG3 heavy chain constant region, isoallotype IGHG3*16; human kappa light chain constant region (vector pFUSE2-CLIg-hk)
B6: PUMA 1 human IgG3-08 isoallotype (antibody)
heavy: B2 heavy
light: B2 light
notes: Isoallotype named in CLM-00007; not shown: human IgG3 heavy chain constant region, isoallotype IGHG3*08; human kappa light chain constant region (vector pFUSE2-CLIg-hk)
B7: PUMA 1 human IgG4-03 isoallotype (antibody)
heavy: B2 heavy
light: B2 light
notes: not shown: human IgG4 heavy chain constant region, isoallotype IGHG4*03; human kappa light chain constant region (vector pFUSE2-CLIg-hk)
B8: PUMA 1 human IgG3-12 isoallotype (antibody)
heavy: B2 heavy
light: B2 light
notes: Isoallotype named in CLM-00007; not shown: human IgG3 heavy chain constant region, isoallotype IGHG3*12; human kappa light chain constant region (vector pFUSE2-CLIg-hk)
B9: PUMA 1 human IgG3-13 isoallotype (antibody)
heavy: B2 heavy
light: B2 light
notes: also called PUMA1-IgG3-13; not shown: human kappa light chain constant region (vector pFUSE2-CLIg-hk)
B10: PUMA 1 human IgG3-19 isoallotype (antibody)
heavy: B2 heavy
light: B2 light
notes: Isoallotype named in CLM-00007; not shown: human IgG3 heavy chain constant region, isoallotype IGHG3*19; human kappa light chain constant region (vector pFUSE2-CLIg-hk)
B11: PUMA 1 human IgG3-15 isoallotype (antibody)
heavy: B2 heavy
light: B2 light
notes: Isoallotype named in CLM-00007; not shown: human IgG3 heavy chain constant region, isoallotype IGHG3*15; human kappa light chain constant region (vector pFUSE2-CLIg-hk)
B12: PUMA 1 human IgG3-18 isoallotype (antibody)
heavy: B2 heavy
light: B2 light
notes: Isoallotype named in CLM-00007; not shown: human IgG3 heavy chain constant region, isoallotype IGHG3*18; human kappa light chain constant region (vector pFUSE2-CLIg-hk)
B13: PUMA 1 human IgG3-09 isoallotype (antibody)
heavy: B2 heavy
light: B2 light
notes: Isoallotype named in CLM-00007; not shown: human IgG3 heavy chain constant region, isoallotype IGHG3*09; human kappa light chain constant region (vector pFUSE2-CLIg-hk)
B14: PUMA 1 human IgG3-11 isoallotype (antibody)
heavy: B2 heavy
light: B2 light
notes: Isoallotype named in CLM-00007; not shown: human IgG3 heavy chain constant region, isoallotype IGHG3*11; human kappa light chain constant region (vector pFUSE2-CLIg-hk)
B15: PUMA 1 human IgG3-17 isoallotype (antibody)
heavy: B2 heavy
light: B2 light
notes: Isoallotype named in CLM-00007; not shown: human IgG3 heavy chain constant region, isoallotype IGHG3*17; human kappa light chain constant region (vector pFUSE2-CLIg-hk)

Residue numbers refer to the chain shown, from its start.

The target of the first experiment is T1, human Kell glycoprotein, Kp^b form …. Description: flow cytometry, indirect immunofluorescence on human RBCs. The method, then: The specificities of the antibodies were determined to be: PUMA ½ (KEL1 or K), PUMA 3 (a common Kell epitope, PUMA 4 (KEL4 or Kp^b). Flow cytometry was utilized to test antibody specificity by indirect immunofluorescence, using the monocolonal antibodies as the primary reagent and a goat-anti-mouse antibody (conjugated to allophycocyanin) as a secondary antibody. Different target cells expressing different Kell variants were used to determine specificity. Targets included RBCs that phenotyped as homozygous for the 3 main antithetical antigens in the Kell system, K/K, k/k, Kp^{b/}Kp^b, Kp^{a/}Kp^a. Js^{b/}J^b, Js^{a/}Js^a. Differential binding to such tarets tests specificity. In the case of PUMA ½, binding was only observed when K was present but not on k/k RBCs. In the case of PUMA 3, binding was observed on all RBCs regardless of phenotype for K/k, Kp^{a/}Kp^{b,} or Js^{a/}Js^b, thus indicating a common epitope outside these systems. However, PUMA 3 bound to only KELL glycoprotein transgenic murine RBCs and not wild-type murine RBCs; thus, the epitope recognized by PUMA 3 is on the KELL molecule, but not K/k, Kp^{a/}Kp^b, or Js^{a/}Js^b. For PUMA 4, binding was only observed when Kp^b was present but not on Kp^{a/}Kp^a RBCs.
For B1, the binding result is “binds”.

The target of the next experiment is T2, human Kell glycoprotein, K form (KEL1). Description: flow cytometry on human K+k+ RBCs, detected with polyclonal anti-IgG. On the procedure: Flow cytometry consisted of incubating test RBCs with PUMA 1 variants, followed by the anti-IgG being evaluated, followed by a detection reagent. Test RBCs included RBCs from K mice, wild-type mice, and reagent RBCs from humans with the phenotype of (K+k+) or (K−k+). Test RBCs were resuspended in 50 microliters of supernatants of PUMA 1 isoallotypes; in some cases a 1/10 dilution in phosphate buffered saline (PBS) was used. For purified IgG1-IgG4 PUMA 1, the antibodies were diluted in PBS at the indicated concentrations. The tested anti-IgG reagents were used undiluted. Detection reagents consisted of donkey anti-rabbit conjugated to phycoerythrin at a 1/200 dilution (Affymetrix cat #12-4739-81, Santa Clara, Calif.), goat anti-mouse IgM conjugated to allophycocyanin at a 1/100 dilution (BD Biosciences, cat #550826, San Jose, Calif.), and goat anti-mouse Igs conjugated to allophycocyanin at a 1/100 dilution (SouthernBiotech cat #1020-11s, Birmingham, Ala.). All anti-IgG subclass antibodies were conjugated to phycoerythrin, were purchased from SouthernBiotech (catalog numbers 9056-09, 9070-09, 9210-09, 9200-09), and were used at a dilution of 1.200. All incubations were performed for 30 min at room temperature, followed by three washes with PBS. All flow cytometry was performed on an Accuri 4 color cytometer (BD biosciences, San Jose Calif.) and all data was analyzed with Flo-Jo version 10.
To assess the sensitivity of commercially available anti-IgG preparations for different human IgG subclasses bound to RBCs, K+k+ RBCs were first incubated with PUMA 1 of the different human IgG subclasses, followed by incubation with anti-IgG. Treated RBCs were then stained with a fluorescently labeled antibody specific for the species in which the anti-IgG was generated (and non-reactive with human IgG). For each anti-IgG, the same secondary antibody was used to detect binding of the anti-IgG to each human PUMA 1 IgG subclass. To assess relative sensitivity, titrations of each PUMA 1 IgG subclass were carried out and samples were analyzed by flow cytometry using mean fluorescent intensity (MFI) to quantify staining (FIGS. 28A, 28B).
For the molecule B2, the binding result is listed as “binds”.
B3: the binding result is reported as “binds”.
Still for that read-out and setting: with B4 the entry was “binds”; with B5, “binds”.
Still for that read-out and setting: with B6 the entry was “binds”; with B7, “binds”.
On the same count and under the same terms, with B8 the entry was “binds”; with B9, “binds”; with B10, “binds”.
For the molecule B11, the binding result was “binds”.
On the same count and under the same terms, to B12 belongs “binds”.
Take B13: the binding result is listed as “binds”.
In the case of B14, the binding result is “binds”.
Still for that read-out and setting: with B15 the entry was “binds”.

Another experiment concerns the target T3, human Kell glycoprotein, k form (KEL2). The experiment can be described thus: flow cytometry on human K-k+ RBCs.
In the case of B2, the binding result is listed as “no binding”.
On the same count and under the same terms, with B3 the entry was “no binding”; with B4, “no binding”.
The same measure, in the same setting: with B5 the entry was “no binding”.
Still for that read-out and setting: to B6 belongs “no binding”; to B7, “no binding”.
For the molecule B8, the binding result is given as “no binding”.
As for B9, the binding result is recorded as “no binding”.
The same measure, in the same setting: with B10 the entry was “no binding”.
Same read-out and setting: to B11 belongs “no binding”.
The same measure, in the same setting: to B12 belongs “no binding”; to B13, “no binding”.
For B14, the binding result was “no binding”.
Still for that read-out and setting: with B15 the entry was “no binding”.
